{"source": "paper PMC7156326", "origin": "cited, not measured here", "biological_target": "GATAD2A coiled-coil (Homo sapiens) (UniProt Q86YP4)", "sequence (Q86YP4 137-178)": "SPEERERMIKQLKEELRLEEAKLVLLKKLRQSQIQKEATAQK", "data": [{"substance": "MBD2 coiled-coil (from UniProt Q9UBB5)", "values": [{"measurement": "Kd", "value": 50, "unit": "nM"}]}]}
